# Experimental data: patent US20220396819A1, “METHOD FOR PRODUCING PEPTIDE HAVING PHYSIOLOGICAL ACTIVITY, AND PEPTIDE COMPRISING SHORT LINKER” (priority 2019, published 2022)
# Read-outs that look alike come from different tables or passages of the source. Positions of bridges follow the written chain, without caps; N, C: chain ends. No end group written: not given here.
# T1: EpoR (UniProt P19235 25-508, limits assumed)
# T1 sequence (looked up): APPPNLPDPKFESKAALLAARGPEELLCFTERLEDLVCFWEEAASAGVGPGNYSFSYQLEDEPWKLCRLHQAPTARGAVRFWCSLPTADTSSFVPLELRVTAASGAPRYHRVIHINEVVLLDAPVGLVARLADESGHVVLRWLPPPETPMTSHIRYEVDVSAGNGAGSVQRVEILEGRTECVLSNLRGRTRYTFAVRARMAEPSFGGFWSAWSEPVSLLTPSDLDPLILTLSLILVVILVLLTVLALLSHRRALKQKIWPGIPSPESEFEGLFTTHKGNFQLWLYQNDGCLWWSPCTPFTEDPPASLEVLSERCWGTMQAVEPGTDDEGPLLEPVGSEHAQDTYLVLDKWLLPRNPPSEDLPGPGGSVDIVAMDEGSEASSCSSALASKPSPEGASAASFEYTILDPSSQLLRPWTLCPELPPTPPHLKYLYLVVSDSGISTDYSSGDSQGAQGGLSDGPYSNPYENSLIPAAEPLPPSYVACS
# Key:
# [1] = tested on: HEL cells; assay: Thrombopoietin-like activity, tyrosine phosphorylation levels in HEL cells (dot blot); type: cell-based, human; conditions: for increase in tyrosine phosphorylation levels compared with rhTPO: culture supernatant diluted, 20 minutes, rhTPO 10 to 100 ng/mL, FIG. 41
# Method: The thrombopoietin-like activity of the TPO-PAS dimer peptide was evaluated by quantification of tyrosine phosphorylation levels in HEL cells, a human leukemia-derived blood cell line. 200,000 HEL cells were cultured in RPMI 1640 medium without FBS (Thermo Fisher Scientific) for 24 hours and starved. The cells were stimulated for 20 minutes in RPMI 1640 medium supplemented with 10 to 100 ng/mL recombinant human TPO (rhTPO, Peprotech) or a culture supernatant containing AET-TPO1-PAS8, TPO2-PAS8, or AET-TPO2-PAS8 at a predetermined dilution factor. As a negative control, PBS (Mock group) or a supernatant expressing no peptide (Empty group) by using an empty vector was added, and stimulation was performed for 20 minutes. After removing the medium and washing the cells once with PBS, the cells were lysed by adding 100 μL of Lysis buffer 17 (R&D Systems) supplemented with Protease inhibitor cocktail (Nacalai Tesque). The lysate solution was centrifuged at 14,000 G for 5 minutes to obtain the supernatant as lysate.
# APVDF membrane (Immobilon-P membrane 0.45 m, Merck) was treated with methanol for 1 minute and then with ultrapure water for 5 minutes for hydrophilic treatment. The PVDF membrane was dried, and each cell lysate solution was spotted with a 1 μL pipette and dried. The PVDF membrane was blocked with PVDF Blocking Reagent for Can Get Signal (NOF) at room temperature for 1 hour, and then Can Get Signal Solution 2 (NOF), supplemented with anti-pY antibody-[…] conjugate (Cell Signaling Technology) at 1:5000, was added, followed by an antibody reaction at 4° C. for 24 hours. The membrane was washed 3 times with TBST buffer, Luminata Crescendo Western HRP Substrate (Merck) was added, and a chemiluminescence reaction was carried out. Chemiluminescence was detected using Amersham Imager 600 (GE Healthcare). The luminescence intensity of the detected dots was quantified by ImageJ.
# [2] = tested on: HEL cells; assay: Signal characteristics, Proteome Profiler Human Phospho-Kinase Array Kit, HEL cells; type: cell-based; conditions: 100 ng/mL rhTPO or culture supernatant 1/100 to 1/1000, 20 minutes, FIG. 43
# Method: The signal characteristics of the TPO-PAS dimer peptide were evaluated using Proteome Profiler Human Phospho-Kinase Array Kit (R&D Systems).
# 1,000,000 HEL cells were cultured in RPMI 1640 medium without FBS (Thermo Fisher Scientific) for 24 hours and starved. The cells were stimulated for 20 minutes in RPMI 1640 medium supplemented with 100 ng/mL recombinant human TPO (rhTPO, Peprotech) or a culture supernatant containing TPO2-PAS8 at a dilution of 1/100 to 1/1000. As a negative control, PBS was added, and stimulation was performed for 20 minutes (Mock group). After removing the medium and washing the cells once with PBS, the cells were lysed by adding 200 μL of Lysis buffer 17 (R&D Systems) supplemented with Protease inhibitor cocktail (Nacalai Tesque). The lysate solution was centrifuged at 14,000 G for 5 minutes to obtain the supernatant as lysate.
# The lysate was analyzed using Proteome Profiler Human Phospho-Kinase Array Kit. Amersham Imager 600 (GE Healthcare) was used to detect chemiluminescence. The chemiluminescence intensity of the dots was quantified using ImageJ. […] The signal pathway stimulated by rhTPO is mainly the JAK2/Stat3,5 pathway, and all of the proteins with increased phosphorylation levels are included in the pathway.
# [3] = molecular target: T2, FGFR (Homo sapiens, UniProt P11362); assay: FGFR inhibitory activity, SRE luciferase assay in HEK293E cells stimulated with bFGF; type: cell-based; conditions: peptide at 10 μM, 0 to 10 ng/mL bFGF, FIG. 3
# T2 construct: endogenous in cells; host or cells: HEK293E
# T2 sequence (P11362 22-822): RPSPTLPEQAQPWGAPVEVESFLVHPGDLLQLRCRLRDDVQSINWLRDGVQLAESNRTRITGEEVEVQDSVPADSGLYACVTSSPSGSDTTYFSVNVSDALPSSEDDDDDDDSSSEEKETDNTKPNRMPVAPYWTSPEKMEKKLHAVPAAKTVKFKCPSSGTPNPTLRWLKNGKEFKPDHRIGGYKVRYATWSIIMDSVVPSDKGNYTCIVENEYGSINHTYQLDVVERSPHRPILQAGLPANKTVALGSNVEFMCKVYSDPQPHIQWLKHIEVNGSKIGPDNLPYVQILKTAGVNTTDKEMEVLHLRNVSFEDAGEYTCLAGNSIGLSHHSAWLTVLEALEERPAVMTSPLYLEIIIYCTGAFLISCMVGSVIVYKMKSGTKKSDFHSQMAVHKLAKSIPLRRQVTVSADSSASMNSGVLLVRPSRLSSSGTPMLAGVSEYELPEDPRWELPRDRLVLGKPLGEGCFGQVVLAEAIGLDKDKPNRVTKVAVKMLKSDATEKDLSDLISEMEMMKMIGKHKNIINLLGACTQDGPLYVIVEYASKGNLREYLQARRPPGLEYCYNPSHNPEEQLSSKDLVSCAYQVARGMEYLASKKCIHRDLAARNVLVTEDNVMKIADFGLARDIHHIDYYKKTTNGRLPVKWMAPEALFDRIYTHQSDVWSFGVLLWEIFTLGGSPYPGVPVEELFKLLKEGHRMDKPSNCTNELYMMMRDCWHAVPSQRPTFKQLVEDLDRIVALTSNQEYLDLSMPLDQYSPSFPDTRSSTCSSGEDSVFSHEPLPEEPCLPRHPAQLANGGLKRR
# Method: The inhibitory activity of the FBP monomer peptide chemically synthesized with the FBP-PAS dimer peptide on FGFR was evaluated by luciferase assay. To 25 μL of Opti-MEM medium (Thermo Fisher Scientific), 0.6 μL of Attractene Transfection Reagent (QIAGEN) was added, and the mixture was incubated at room temperature for 5 minutes. To the above mixed solution, a mixed solution of 25 μL of Opti-MEM and 1 μL of SRE reporter vector (QIAGEN) was added, and the mixture was incubated at room temperature for 20 minutes. This mixed solution was added to a 96-well plate, over which 40,000 cell/well HEK293E cells were seeded and incubated overnight in a 5% CO2 incubator at 37° C. […]
# The signal intensities were detected using Dual-Luciferase Reporter Assay System (Promega). […] The luminescence of Firefly luciferase emitted from the cell lysate solution was detected with a plate reader to quantify the activation of the FGFR-Erk-SRE pathway. Subsequently, 50 μL of Glo & Stop reagent solution was added, and after 10 minutes, the luminescence of the internal standard Renilla luciferase was detected to quantify the number of cells. The signal activity of each sample was quantified as SRE activity=(Firefly luciferase luminescence intensity)/(Renilla luciferase luminescence intensity). […]
# [4] = molecular target: Met (HGF receptor) (UniProt P08581); assay: cell-based or functional assay
# Met (HGF receptor), sequence (P08581 25-1390 limits assumed): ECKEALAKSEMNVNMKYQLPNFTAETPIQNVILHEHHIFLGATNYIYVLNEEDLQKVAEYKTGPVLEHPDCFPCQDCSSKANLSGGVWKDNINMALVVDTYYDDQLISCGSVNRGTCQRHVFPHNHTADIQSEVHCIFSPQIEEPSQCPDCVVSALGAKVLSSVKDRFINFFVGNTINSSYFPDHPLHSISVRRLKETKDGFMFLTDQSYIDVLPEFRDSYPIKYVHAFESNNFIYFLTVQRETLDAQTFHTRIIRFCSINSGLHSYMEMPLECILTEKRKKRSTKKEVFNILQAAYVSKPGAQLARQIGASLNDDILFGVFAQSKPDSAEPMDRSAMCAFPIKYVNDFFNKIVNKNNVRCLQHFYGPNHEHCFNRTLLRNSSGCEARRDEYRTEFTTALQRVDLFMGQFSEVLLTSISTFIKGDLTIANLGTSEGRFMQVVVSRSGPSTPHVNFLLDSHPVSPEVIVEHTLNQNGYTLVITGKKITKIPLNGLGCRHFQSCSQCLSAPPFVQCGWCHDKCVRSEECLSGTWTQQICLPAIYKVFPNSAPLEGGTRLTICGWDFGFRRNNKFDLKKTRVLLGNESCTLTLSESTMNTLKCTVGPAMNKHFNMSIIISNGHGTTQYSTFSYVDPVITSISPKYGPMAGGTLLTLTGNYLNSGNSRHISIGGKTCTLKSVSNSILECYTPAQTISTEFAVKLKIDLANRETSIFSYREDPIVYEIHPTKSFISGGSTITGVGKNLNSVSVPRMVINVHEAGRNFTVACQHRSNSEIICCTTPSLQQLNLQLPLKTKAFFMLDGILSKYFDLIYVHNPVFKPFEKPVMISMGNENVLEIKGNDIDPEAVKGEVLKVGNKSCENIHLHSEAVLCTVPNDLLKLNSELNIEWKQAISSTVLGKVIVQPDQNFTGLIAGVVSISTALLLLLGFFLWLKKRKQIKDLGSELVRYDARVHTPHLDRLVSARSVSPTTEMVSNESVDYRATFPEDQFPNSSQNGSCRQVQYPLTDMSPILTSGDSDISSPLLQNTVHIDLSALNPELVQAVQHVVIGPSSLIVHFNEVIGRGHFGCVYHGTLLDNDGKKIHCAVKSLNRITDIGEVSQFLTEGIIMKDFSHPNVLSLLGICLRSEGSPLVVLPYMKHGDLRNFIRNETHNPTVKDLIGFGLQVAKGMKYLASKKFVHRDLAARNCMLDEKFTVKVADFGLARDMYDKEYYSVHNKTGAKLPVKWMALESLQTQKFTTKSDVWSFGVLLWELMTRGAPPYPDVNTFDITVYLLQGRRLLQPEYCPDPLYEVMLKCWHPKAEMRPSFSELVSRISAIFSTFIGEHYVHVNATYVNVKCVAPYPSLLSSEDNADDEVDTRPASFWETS
# [5] = molecular target: T1, EpoR; assay: cell-based or functional assay
# [6] = molecular target: T1, EpoR; assay: cell-based or functional assay; remark: listed apart in the source
# [7] = tested on: HEL cells; assay: Thrombopoietin-like activity, CREB phosphorylation levels in HEL cells (Phospho-CREB (Ser133) ELISA); type: cell-based, human; conditions: dimer peptide 20-40 ng/mL or rhTPO 100 ng/mL, 20 minutes, Mock = PBS, FIG. 90
# Method: The thrombopoietin-like activity of the TPO-PAS dimer peptide variant was evaluated by quantification of CREB phosphorylation levels in HEL cells, a human leukemia-derived blood cell line. 200,000 HEL cells were cultured in RPMI 1640 medium without FBS (Thermo Fisher Scientific) for 24 hours and starved. The cells were stimulated for 20 minutes in RPMI 1640 medium supplemented with 100 ng/mL recombinant human TPO (rhTPO, Peprotech) or a culture supernatant containing each dimer peptide of TPO2-PAS8, TPO2-PAS49, TPO2-PAS100, or TPO2-GS8 diluted to a final concentration of 20-40 ng/mL. As a negative control, PBS was added, and stimulation was performed for 20 minutes (Mock group). After removing the medium and washing the cells once with PBS, the cells were lysed by adding 100 μL of Lysis buffer 17 (R&D Systems) supplemented with Protease inhibitor cocktail (Nacalai Tesque). The lysate solution was centrifuged at 14,000 G for 5 minutes to obtain the supernatant as lysate. Note that TPO2-PAS8 was obtained according to the method described in Example 23.
# Phospho-CREB (Ser133) and Total CREB ELISA kit (RayBio) were used to quantify phosphorylated CREB (pCREB) levels in the lysates. […] Phosphorylation levels were quantified by adding 50 μL of Stop solution and measuring the absorbance at a wavelength of 450 nm on a microplate.
molecule,measurement,setting,value
AETIEGPTLRQWLAARAAAPAAPAPIEGPTLRQWLAARA (AET-TPO1-PAS8),increase in tyrosine phosphorylation levels compared with rhTPO,[1],equal to or higher than that of rhTPO
"GGCADGPTLREWISFCGGAAPAAPAPGGCADGPTLREWISFCGG (disulfide 3-16, 29-42) [TPO2-PAS8]",luminescence intensity (HEL cell activation ability) compared with rhTPO,"[1]; culture supernatant 1/100 to 1/10000 dilution, FIG. 42",equal to or higher than that of the 100 ng/mL rhTPO stimulation group
same,increase in tyrosine phosphorylation levels compared with rhTPO,[1],equal to or higher than that of rhTPO
same,phosphorylation levels of signal proteins compared with PBS (Mock group),[2],"increased in phosphorylation levels of Erk, CREB, Stat3, Stat5a, and Stat5b"
"RPGCGPRKPRTPKKCGSHGAAPAAPAPAAPAAPAPAAPAGRPGCGPRKPRTPKKCGSH (disulfide 4-15, 44-55) [FBP-PAS]",inhibitory activity on FGFR (relative receptor activity),[3],higher inhibitory activity than the FBP monomer peptide
recombinant human HGF (from UniProt P14210 32-728) (ligand),rate of wound healing of HuCCT1 cells (33 ng/mL HGF),[4],1.6 times
GGLYACHMGPMTWVCQPLRG [monomer peptide EMP35],EC50,[5],110 ng/mL
AET-EPO-PAS22-PAS600 (two disulfide bonds in the molecule) peptide: AETGGLYACHMGPMTWVCQPLRGAAPAAPAPAAPAAPAPAAPAAPGGLYACHMGPMTWVCQPLRGAAPAAPAPAAPAAPAPAAPAAPAPAAPAAPAPAAPAAPAPAAPAAPAPAAPAAPAPAAPAAPAPAAPAAPAPAAPAAPAPAAPAAPAPAAPAAPAPAAPAAPAPAAPAAPAPAAPAAPAPAAPAAPAPAAPAAPAPAAPAAPAPAAPAAPAPAAPAAPAPAAPAAPAPAAPAAPAPAAPAAPAPAAPAAPAPAAPAAPAPAAPAAPAPAAPAAPAPAAPAAPAPAAPAAPAPAAPAAPAPAAPAAPAPAAPAAPAPAAPAAPAPAAPAAPAPAAPAAPAPAAPAAPAPAAPAAPAPAAPAAPAPAAPAAPAPAAPAAPAPAAPAAPAPAAPAAPAPAAPAAPAPAAPAAPAPAAPAAPAPAAPAAPAPAAPAAPAPAAPAAPAPAAPAAPAPAAPAAPAPAAPAAPAPAAPAAPAPAAPAAPAPAAPAAPAPAAPAAPAPAAPAAPAPAAPAAPAPAAPAAPAPAAPAAPAPAAPAAPAPAAPAAPAPAAPAAPAPAAPAAPAPAAPAAPAPAAPAAPAPAAPAAPAPAAPAAPAPAAPAAPAPAAPAAPAPAAPAAPAPAAPAAPAPAAPAAPAPAAPAAPAPAAPAAPAPAAPAAPAP,EC50,[6],0.32 ng/mL
AET-EPO-PAS22-PAS200 (two disulfide bonds in the molecule) peptide: AETGGLYACHMGPMTWVCQPLRGAAPAAPAPAAPAAPAPAAPAAPGGLYACHMGPMTWVCQPLRGAAPAAPAPAAPAAPAPAAPAAPAPAAPAAPAPAAPAAPAPAAPAAPAPAAPAAPAPAAPAAPAPAAPAAPAPAAPAAPAPAAPAAPAPAAPAAPAPAAPAAPAPAAPAAPAPAAPAAPAPAAPAAPAPAAPAAPAPAAPAAPAPAAPAAPAPAAPAAPAPAAPAAPAPAAPAAPAPAAPAAPAPAAPAAPAPAAPAAPAP,EC50,[6],0.85 ng/mL
"rhTPO: recombinant human TPO (rhTPO, Peprotech) (protein) SPAPPACDLRVLSKLLRDSHVLHSRLSQCPEVHPLPTPVLLPAVDFSLGEWKTQMEETKAQDILGAVTLLLEGVMAARGQLGPTCLSSLLGQLSGQVRLLLGALQSLLGTQLPPQGRTTAHKDPNAIFLSFQHLLRGKVRFLMLVGGSTLCVRRAPPTTAVPSRTSLVLTLNEL",pCREB level (relative CREB phosphorylation level),[7],143%
same,phosphorylation levels of signal proteins compared with PBS (Mock group),[2],"increased in phosphorylation levels of Erk, CREB, Stat3, Stat5a, and Stat5b"
"AET-EPO-PAS8 (disulfide 9-18, 37-46) peptide: AETGGLYACHMGPMTWVCQPLRGAAPAAPAPGGLYACHMGPMTWVCQPLRG",EC50,[5],0.19 ng/mL
"AET-EPO-PAS22 (disulfide 9-18, 51-60) peptide: AETGGLYACHMGPMTWVCQPLRGAAPAAPAPAAPAAPAPAAPAAPGGLYACHMGPMTWVCQPLRG",EC50,[5],0.34 ng/mL
